This assay addresses T1, Spx with N-terminal His6 tag (S. aureus, UniProt P60379 1-131).
T1 sequence (looked up): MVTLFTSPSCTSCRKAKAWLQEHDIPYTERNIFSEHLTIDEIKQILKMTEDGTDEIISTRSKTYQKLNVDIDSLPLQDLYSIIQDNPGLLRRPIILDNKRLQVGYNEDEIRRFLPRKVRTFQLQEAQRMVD
The experiment in a line: native gel or EMSA. A general note: Mobility shift assays separate free from complexed probe on a gel.

B1: αCTD (residues 245 to 314 of the RNA polymerase α subunit RpoA) (domain or fragment, S. aureus, UniProt Q2FW32 245-314, looked up)
chain: KEKVLEMSIEELDLSVRSYNCLKRAGINSVQELADKSEADMMKVRNLGRKSLEEVKYKLEDLGLGLRKED
Regarding B1, the binding result is on record as “binds”.

These data come from article PMC6703946 (Molecular microbiology, 2019).
